± gives the uncertainty stated by the source.

This series can be described thus: amyloid nucleation score (Sup35N fusion, yeast selection) (log enrichment); library NNK1; higher = more nucleation; inactive = no reads after selection. The procedure, abridged: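 On medium lacking adenine and uracil, psi-negative yeast expressing peptides of 20 random codons fused to Sup35N were grown 7 days at 30°C after a 24-hour induction with 100 μM copper sulfate. Illumina sequencing of input and output plasmid inserts gave the reads, and sequences under 100 input reads were excluded. The nucleation score is the DiMSum log enrichment of output over input reads, centred on the mode score of non-aggregating sequences.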
For LVGVWMDCLMKPKPIARTLP, the amyloid nucleation score result is “inactive”. With LVIALSQTDAYGELVSRNMC, the amyloid nucleation score worked out at 1.06 ± 0.97. In the case of LVIFKLTM, the amyloid nucleation score came out at 3.51 ± 0.066. LVISETWGSCFWNSVDSCAG: the amyloid nucleation score stood at 0.815 ± 0.66. With LVMFSNLCSWFLLF, the amyloid nucleation score worked out at 0.966 ± 0.62. Consider LVRWVCIGFRYILRGELGVE, for which the amyloid nucleation score turned out to be 0.052 ± 0.28. With LVSLRSIRSRRWCSRQFWSM, the amyloid nucleation score is -0.111 ± 0.5. For the substance LVSWSTVDVSQLTAWKKPAG, the amyloid nucleation score is -0.431 ± 0.36. LVTFPKLSEVIHGKADVMHS yielded an amyloid nucleation score of -0.633 ± 0.88. As to LVVCAVVGSDLLWL, the amyloid nucleation score was 0.848 ± 0.72.

LVVFATSVGSGGFKVWGHPG registered an amyloid nucleation score of 0.041 ± 0.45. The substance LVVIVTPWKYSEP had an amyloid nucleation score of 6.58 ± 0.086. The entry for LVVSWKLVPSSSTYCGTMSL is “inactive”; for LVWGFFSHRM it is 2.37 ± 0.14. In turn, LVYGKPVNHAEGSDDSTHNG displayed an amyloid nucleation score of 0.205 ± 0.6. LWLIVEDSVYFVGMQGHIFN gave an amyloid nucleation score of -0.381 ± 0.39. Substance LWLLHGFDWWKCIYLPGRFL showed an amyloid nucleation score of 0.307 ± 0.97.

As for LWLLYVIECHLGCYRTVLMG, the amyloid nucleation score is -0.385 ± 0.93. The substance LWMFRFNYYDVLPCGMPGLC registered an amyloid nucleation score of 0.694 ± 0.66. Substance LWSLDSDSCKVLGDSGCGFF displayed an amyloid nucleation score of 0.133 ± 0.34.

LWSTMICLVFMYPIILVNFT gave an amyloid nucleation score of 1.64 ± 0.36. Substance LWVVPLE showed an amyloid nucleation score of -0.643 ± 1.9. Regarding LWYSFNVHTVHYYQCSDIYS, the amyloid nucleation score is -0.142 ± 0.26. The substance LYETMTCFWMRLWSFCGSPA yielded an amyloid nucleation score of -0.033 ± 0.69.

Substance LYFGNTGKGNFRQVSRLKHS registered an amyloid nucleation score of 0.116 ± 0.73. With LYFITTM, the amyloid nucleation score was 1.18 ± 0.59. On to LYGFLICLCDSYVRGH, for which the amyloid nucleation score is 0.213 ± 0.49.

In turn, LYGNT yielded an amyloid nucleation score of 1.37 ± 0.38. With LYIRSIACGSSLLFLAVLNC, the amyloid nucleation score was -0.856 ± 1.1. Turning to LYITVIVHNWVLGWKRVLLE, the amyloid nucleation score turned out to be 1.64 ± 0.71. As to LYLDIWYCQIKVTFIGP, the amyloid nucleation score entry was “inactive”. The value for LYLNADLYYE was 0.005 ± 0.7.

As for LYNSGSTLI, the amyloid nucleation score was determined as 0.342 ± 0.61. In turn, LYNTITRDTTPHGVEN gave an amyloid nucleation score of -1.84 ± 2.7. In turn, LYRAAEYSLRILRLKATYPA had an amyloid nucleation score of -0.134 ± 0.89. The value for LYSAGRCYARSCVKL was 0.829 ± 0.27; that for LYVTLV was 2.23 ± 0.17; that for LYWNVVN was -0.578 ± 0.5. As for MALLRLDIITFRNESCSEPN, the amyloid nucleation score was -0.046 ± 0.26. The value for MALMYLMVTRVDLALSL was 0.072 ± 0.34; that for MASRHKEWRCVMYEHGLRAC was 0.58 ± 1.2; that for MAVERLGSQVERDIRGWWRV was 0.063 ± 0.59.

For the substance MCCCLDDEGDHLNWFKRLRC, the amyloid nucleation score was found to be 1.52 ± 0.49.

As for MCDCLPPCDSGWNFFEWGWE, the amyloid nucleation score was -0.131 ± 0.69. MCDYFYNIVFVKCCALWCLD registered an amyloid nucleation score of 4.01 ± 0.069. The figure for MCTLDLD is 0.824 ± 0.54; for MDTVFSFYVIIPVQFSCVAL it is 3 ± 0.13; for MDWNQGVAGATMIYLCFNNN it is 7.881 ± 0.064. With MEFISFTWLKYSYMYSDVFS, the amyloid nucleation score entry was “inactive”. For MERDEFKFLGERLGWLSCWR, the amyloid nucleation score amounted to 1.04 ± 0.57. On to MEVISRSVLSSLSWFGTVEE, for which the amyloid nucleation score is 0.598 ± 0.5. Turning to MFCFKGHQSRDLRTFDYIW, the amyloid nucleation score was found to be 0.1 ± 0.27. As to MFCLALECEVHLGMHYYNHA, the amyloid nucleation score came to 0.906 ± 0.2. MFGQWMAPHQTRFGSGQFGW returned an amyloid nucleation score of -0.038 ± 0.38.

Consider MFRCFSDTKSNRTFCFMHTC, for which the amyloid nucleation score is -0.143 ± 0.56. MFSYDFGMCGFYN registered an amyloid nucleation score of 0.971 ± 0.29. Substance MGAIFCNGSK returned an amyloid nucleation score of 0.371 ± 0.67.

With MGCWCLASRDLTKT, the amyloid nucleation score was -0.485 ± 1.

Substance MGFDLSRRTCLYYLVTLSW displayed an amyloid nucleation score of 0.014 ± 1.1.

MGLQTFVVTRMV showed an amyloid nucleation score of -0.758 ± 0.42. The figure for MGMGNVYAIQFCPMILWD is 6.783 ± 0.057.

MGNTLITLIVGSGAL had an amyloid nucleation score of 3.44 ± 0.18. MGPMCSQPLHVPSMVSMVTL yielded an amyloid nucleation score of 0.735 ± 0.35. The value for MGVVQCAKRQQRLLMQLTVL was 0.054 ± 0.93. Substance MHPFVRSEK displayed an amyloid nucleation score of 0.168 ± 0.36.

In turn, MHRESR yielded an amyloid nucleation score of 1.2 ± 0.36. With MHWFRVN, the amyloid nucleation score turned out to be 0.324 ± 0.3. For MICAQSVS, the amyloid nucleation score was 0.991 ± 0.24. MICMD had an amyloid nucleation score of -0.27 ± 0.3. In the case of MIDRRKSLVEGRGRNCVSGC, the amyloid nucleation score is -0.646 ± 1.1.

With MIKYYYGSGTLS, the amyloid nucleation score was -0.429 ± 0.34. The value for MILHLDVSISIVLD was 1.58 ± 0.15. MIRFKQT came in with an amyloid nucleation score of -0.651 ± 0.45. Substance MIRQYDCSVFKCRERYFWAF came in with an amyloid nucleation score of 0.675 ± 0.85.

For MISIS, the amyloid nucleation score amounted to 0.088 ± 0.26. Regarding MISMFSLFLIRMIM, the amyloid nucleation score was -0.052 ± 0.54.

In turn, MITIRVLEQDHLSLSLALSY showed an amyloid nucleation score of -0.597 ± 0.57.

For MIVYNMFGMNYYLFILDG, the amyloid nucleation score was found to be 7.508 ± 0.048. The value for MKAGFHYYLVMLVRKE was 0.265 ± 0.31; that for MKFFRRFYREYF was -0.431 ± 1; that for MKLMKPGTLSSWCFFDSSGV was 0.016 ± 0.51.

As for MKMNDYMGVRDWVHLIDVCS, the amyloid nucleation score result is “inactive”. Consider MKSCASDPVCCPQTTRSTSL, for which the amyloid nucleation score is 0.742 ± 0.49.

Regarding MKTMRKW, the amyloid nucleation score entry was “inactive”. Take MKVRQDRKPYWVAESAMCVC: the amyloid nucleation score is -0.261 ± 0.59. The figure for MLEVKPLTCMVSPIYDFMPG is -0.134 ± 0.41. The substance MLGSYLHVDSGNCTKVLRTV returned an amyloid nucleation score of 0.326 ± 0.41. The figure for MLISSILTYIKVSGYCPGCT is 0.347 ± 0.52; for MLLIRNFQFTTLFVCHFSAE it is -0.038 ± 0.16.

For MLLWSVSLNKKKTLKECRRQ, the amyloid nucleation score worked out at 1.16 ± 0.67. The substance MLNINVTYGFGDLREWNRIF showed an amyloid nucleation score of 1.16 ± 0.13. Turning to MLRMQKIGLFSLGMSC, the amyloid nucleation score was -0.838 ± 0.47. Take MLSGSVAESKNLIQLCAFFM: the amyloid nucleation score worked out at 6.704 ± 0.047.

Substance MLVNSM gave an amyloid nucleation score of 0.497 ± 0.49. MLYDFVDIRECNDILPARGG registered an amyloid nucleation score of 0.043 ± 0.35. The figure for MMCGNLY is 0.625 ± 0.7; for MMLRLRT it is “inactive”; for MMRGTLC it is 0.458 ± 0.41.

MMRTWGLFRVGRWESWRPVR had an amyloid nucleation score of 0.26 ± 0.78. Take MMVLKFGMLVLSGDLAPATS: the amyloid nucleation score stood at 0.854 ± 0.72. On to MNASITFSVLWVACETKCRV, for which the amyloid nucleation score amounted to 3.42 ± 0.14. The value for MNMICSFL was -1.39 ± 1.4. The value for MPAWFILGDVVL was 1.2 ± 0.35. MPDFSWA returned an amyloid nucleation score of -0.115 ± 1.2. MPNSPQS showed an amyloid nucleation score of -0.404 ± 0.3. MQGDRQDGLYNKGDYPQFIF yielded an amyloid nucleation score of -0.267 ± 0.39. The entry for MQGFHSW is “inactive”; for MQTLPIR it is -0.519 ± 0.46. Regarding MREGFTLFVDKDCNAGTYTW, the amyloid nucleation score result is “inactive”. Substance MRGFHSQRHSIAECVAIQKG showed an amyloid nucleation score of 0.359 ± 0.37.

In turn, MRGTSEFYLVRGRYTCISRG had an amyloid nucleation score of -0.292 ± 0.45. In turn, MRLLIGEKIMWSLRCCSDKG had an amyloid nucleation score of -0.263 ± 0.29.

MRLWLIWYISVMLTQNPRLW returned an amyloid nucleation score of 1.22 ± 0.46. MRPPGNPGWWVRRKARWDPG showed an amyloid nucleation score of -0.506 ± 1. MRSLSVLFGIRTCLTVQWSK: the amyloid nucleation score was 0.276 ± 0.66.

For the substance MRWHINATLNGRLGAGLILV, the amyloid nucleation score is -0.526 ± 0.7. The value for MRWSIFRSTWFCAYSSLVSS was 0.131 ± 0.5; that for MRYMCVRY was 0.676 ± 0.46.

In turn, MSDLLSVVN displayed an amyloid nucleation score of 0.142 ± 0.81.

Take MSEENSTNIIYSIVPKSL: the amyloid nucleation score result is “inactive”.

As for MSGCLDDNANC, the amyloid nucleation score was -0.382 ± 0.35.

In turn, MSISRALLGSSFMFGLVISA registered an amyloid nucleation score of -0.14 ± 0.83. With MSLSFAPLAIYPDNIVTDVI, the amyloid nucleation score is -0.329 ± 0.7. In turn, MSPLYNDFWYSCRIYKGEVM returned an amyloid nucleation score of 0.606 ± 0.55. With MSPWASNHLW, the amyloid nucleation score result is “inactive”. Take MSSIKQY: the amyloid nucleation score was -1.07 ± 2.4.

MSSVVLANFEGPAHELATGV displayed an amyloid nucleation score of -0.072 ± 0.58. Regarding MSVLAIMHLGPGHFAAAYY, the amyloid nucleation score amounted to 0.186 ± 0.4. The value for MSVLALVPGYLSA was -0.088 ± 0.46; that for MSVMLIS was 0.126 ± 0.44; that for MSWNYCNDM was -0.045 ± 0.22. With MTAIFSRSSQNFFVGW, the amyloid nucleation score stood at 7.154 ± 0.066. For the substance MTCDVSKMCVSLRVVTSNGG, the amyloid nucleation score worked out at 1.27 ± 0.31.

MTDMVVSCCMPAEVQRRSGA registered an amyloid nucleation score of 0.009 ± 1.1.

Consider MTVCM, for which the amyloid nucleation score amounted to 0.125 ± 1.4.

As to MTVKSAPK, the amyloid nucleation score was 0.258 ± 0.55.

Consider MTVYLITNRHLR, for which the amyloid nucleation score turned out to be 0.905 ± 0.64. The value for MTWNNWCSMRLACIS was 3.9 ± 0.074; that for MVAEIYQAFWVC was -0.349 ± 1.2; that for MVDFNSRSKYSVYLSHRGKF was 1.7 ± 0.11. The value for MVFSLSCFKSFTCYTYMCTA was 7.15 ± 0.055; that for MVGCTYVCLADLFCKLLLMS was -0.015 ± 0.41.

For the origin of these results see the supplement of paper PMC12042874.
